The record followed here is PMC8708588, “Easy Expression and Purification of Fluorescent N-Terminal BCL11B CCHC Zinc Finger Domain” (Molecules, 2021).

One may read the stoichiometry N as a count of units in the complex or per binding partner.

Data set [1] concerns the molecule itself. The data set can be described thus: SEC; Superdex 200 Increase 3.2/300 on ÄKTAmicro; sizes from a calibration curve with protein standards. For orientation: Size exclusion chromatography separates by hydrodynamic size, large species first.
A further data set concerns the target T1, CyPet-BCL11B_(42-94) (UniProt Q9C0K0 42-94).
T1 construct: B-cell lymphoma/leukemia 11B (BCL11B), N-terminal atypical CCHC zinc finger domain, amino acids 42-94; codon-optimized insert; Order on the chain: His6, CyPet, flexible linker (GGGGS)3, TEV-cleaving site, XhoI site, BCL11B 42-94, KpnI site; Fusion of 36 kDa; CyPet already has lysine at position 206; also called fluorescently tagged BCL11B_(42-94); CyPet-tagged N-terminal BCL11B CCHC zinc finger …
T1 sequence (looked up): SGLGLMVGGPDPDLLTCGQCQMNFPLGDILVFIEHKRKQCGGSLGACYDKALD
The data set can be described thus: FRET or BRET; CyPet- and mEYFP-tagged domain mixed 1:1, total protein 200 µg/mL, 20 mM HEPES, 150 mM NaCl, 1 mM DTT, pH 7.4; incubated 48 h at 4 °C; excitation 400 nm, emission spectra 420-700 nm at room temperature. The note with it: both partners purified.

B1: untagged BCL11B_(42-94) zinc finger domain (domain or fragment)
chain: GLESGLGLMVGGPDPDLLTCGQCQMNFPLGDILVFIEHKRKQCGGSLGACYDKALD
notes: B-cell lymphoma/leukemia 11B (BCL11B), N-terminal atypical CCHC zinc finger domain, amino acids 42-94; 5.5 kDa; source: E. coli NiCo21 (DE3); TEV digest of purified CyPet- or mEYFP-BCL11B_(42-94), flow-through of IMAC; not shown: His6, N-terminal, cleaved; CyPet or mEYFP, N-terminal, cleaved
As for B1, in data set [1], the “stoichiometry N” value came to 4.

B2: mEYFP-BCL11B_(42-94) (domain or fragment, UniProt Q9C0K0 42-94, looked up)
chain: SGLGLMVGGPDPDLLTCGQCQMNFPLGDILVFIEHKRKQCGGSLGACYDKALD
notes: B-cell lymphoma/leukemia 11B (BCL11B), N-terminal atypical CCHC zinc finger domain, amino acids 42-94; codon-optimized insert; Fusion of 36 kDa; also called fluorescently tagged BCL11B_(42-94); source: E. coli NiCo21 (DE3), purified (IMAC, HisTrap excel); not shown: His6, N-terminal, kept; mEYFP (EYFP with A206K), N-terminal, kept
For B2, the binding result (in data set [1]; in the data set with CyPet-BCL11B_(42-94)) was “binds” in each case.
